Earlier results, collected in paper PMC8481289.

Target: UFC1 (Homo sapiens) (UniProt Q9Y3C8)
Sequence (Q9Y3C8 whole entry): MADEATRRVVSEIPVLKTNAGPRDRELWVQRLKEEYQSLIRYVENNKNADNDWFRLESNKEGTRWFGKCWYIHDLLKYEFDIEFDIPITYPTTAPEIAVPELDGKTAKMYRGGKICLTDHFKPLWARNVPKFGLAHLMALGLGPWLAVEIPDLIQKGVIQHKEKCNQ

Chain of UBA5 (Q9GZZ9 whole entry): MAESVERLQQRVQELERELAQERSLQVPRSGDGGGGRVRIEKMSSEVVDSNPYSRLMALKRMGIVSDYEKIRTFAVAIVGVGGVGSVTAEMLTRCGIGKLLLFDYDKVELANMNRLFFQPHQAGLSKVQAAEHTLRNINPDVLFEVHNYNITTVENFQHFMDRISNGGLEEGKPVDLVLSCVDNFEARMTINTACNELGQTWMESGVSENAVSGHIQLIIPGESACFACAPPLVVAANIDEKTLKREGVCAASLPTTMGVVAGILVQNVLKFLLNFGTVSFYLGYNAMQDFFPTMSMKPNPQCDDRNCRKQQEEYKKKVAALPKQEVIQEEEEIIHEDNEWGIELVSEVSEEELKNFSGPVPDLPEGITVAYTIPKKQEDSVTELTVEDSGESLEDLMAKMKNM

In the case of UBA5 (from UniProt Q9GZZ9), the Kd is listed as 1000 nM.
